Assay: label from the status in PepcDB records

MRRSMRMNMSVASNIHSLLARLLPERVIAPPAPAGRRQRLFSGVGLPSQRSLLVNRLDEANDLQAVYVDLRRQALQGSVSALNDLGWIWLNGKYWRADTVLAGHLLRMAALQGNAAAWFNLGQQHYFGKGIDPSYVQAAECYRQAFDRGMLHAAAALGDLYEEEVCDGDLEWQVDLVQAYQWFLRGAEQGEARCRFEMGYRLMHGLHVEANLKAALYWLELAAAAGVVQAAEELAVHFSSRDAVRYQEWRDRAVQMGSTLALTMKLEDQIHP
protein production: failed

MSLESMLSHPPIPIADMAEHTERLKANDSLKLSQEYESIDPGQQFTWEHSNLEVNKPKNRYANVIAYDHSRVILQPIEGIMGSDYINANYVDGYRRQNAYIATQGPLPETFGDFWRMVWEQRSATIVMMTRLEEKSRIKCDQYWPNRGTETYGFIQVTLLDTIELATFCVRTFSLHKNGSSEKREVRQFQFTAWPDHGVPEYPTPFLAFLRRVKTCNPPDAGPIVVHCSAGVGRTGCFIVIDAMLERIKPEKTVDVYGHVTLMRSQRNYMVQTEDQYSFIHEALLEAVGCGNTEVPARSLYAYIQKLAQVEPGEHVTGMELEFKRLANSKAHTSRFISANLPCNKFKNRLVNIMPYESTRVCLQPIRGVEGSDYINASFIDGYRQQKAYIATQGPLAETTEDFWRMLWENNSTIVVMLTKLREMGREKCHQYWPAERSARYQYFVVDPMAEYNMPQYILREFKVTDARDGQSRTVRQFQFTDWPEQGVPKSGEGFIDFIGQVHKTKEQFGQDGPISVHCSAGVGRTGVFITLSIVLERMRYEGVVDIFQTVKMLRTQRPAMVQTEDEYQFCYQAALEYLGSFDHYATEGHHHHHH
protein production: not failed

MKLSFSLPSKSKPKVTATTADGNNAVDDGTSKEFVTEFDPSKTLANSIPKYVIPPIENTWRPHKKMKNLDLPLQSGNAGSGLEFEPEVPLPGTEKPDNISYGLNLRQKVKDDSIGGDAVEERKVSMGEQLMLQSLRRDLMSLADDPTLEDFESVPVDGFGAALMAGYGWKPGKGIGKNAKEDVEIKEYKKWTAKEGLGFDPDRSKVVDVKAKVKESVKLDKKGVGINGGDVFFVGKEVRIIAGRDVGLKGKIVEKPGSDFFVIKISGSEEEVKVGVNEVADLGSKEEEKCLKKLKDLQLNDREKDKKTSGRGRGAERGSRSEVRASEKQDRGQTRERKVKPSWLRSHIKVRIVSKDWKGGRLYLKKGKVVDVVGPTTCDITMDETQELVQGVDQELLETALPRRGGPVLVLSGKHKGVYGNLVEKDLDKETGVVRDLDNHKMLDVRLDQVAEYMGDMDDIEY
protein production: failed

MHQDVLLGGRYRLGAQLGGGSEAYVNEAWDLLSGKTVAVKIFRSTNSLDNAPFRRELEIHGRLRHRNIVRILDSGDTDSRGDGAGVGQDNRHFVVMELVAGKDLRWILQDKPASPEQTAAWMTDVARALAHVHRRGIVHNDIKPGNILVDFASDPGGPGVAKLADFGIALNGRHGVPNSSSGTPHYLSPEEVCGGTSTTASDIYSLGLVALECLTGTKAFPGPPLESMVARTLGEPRIPGTVRRRWSMVLHAMTDPDPAGRPSASQTVGMLRRLSW
protein production: failed

MSQEYTEDKDVTLTKLSSGRRLLEALLILIALFAVWLMAALLSFNPSDPSWSQTAWHEPIHNLGGAPGAWLADTLFFIFGVMAYTIPVIIVGGCWFAWRHQSTDDYIDYFAVSLRLIGVLALILTSCGLAAINADDIWYFASGGVIGSLLSTTLQPLLHSSGGTIMLLCIWAAGLTLFTGWSWVSIAEKLGGWLLNILTFASNRTRRDDTWVDDEEYDDEYDEETDGVQRESRRARILRGALARRKRLAEKFSNPRGRQTDAALFSGKRMDDDEDIQYSARGVAADPDDVLFSGNRATQPEYDEYDPLLNGHSVTEPVAAAAAATAVTQTWAASADPIMQTPPMPGAEPVVAQPTVEWQPVPGPQTGEPVIAPAPEGYQPHPQYAQPQEAQSAPWQQPVPVASAPQYAATPATAAEYDSLAPQETQPQWQAPDAEQHWQPEPTHQPEPIAAEPSHMPPPVIEQPVTTEPEPGIEETRPARPPLYYFEEVEEKRAREREQLAAWYQPIPEPVKENVPVKPTVSVAPSIPPVEAVAAAASLDAGIKSGALAAGAAAAAPAFSLATGGAPRPQVKEGIGPQLPRPNRVRVPTRRELASYGIKLPSQRIAEEKAREAERNQYETGVQLTDEEIDAMHQDELARQFAQSQQHRYGETYQHDTQQAEDDDTAAEAELARQFAASQQQRYSGEQPAGAQPFSLDDLDFSPMKVLVDEGPHEPLFTPGVMPESTPVQQPVAPQPQPQYQQSQQPVAPQSQYQQPQQPVAPQPQPQYQQSQQPVAPQSQYQQPQQPVAPQPQYQQPQQPVAPQPQYQQPQQPTAPQPQYQQPVAPQPQYQQPQQPVAPQPQYQQPQQPTAPQDSLIHPLLMRNGDSRPLQRPTTPLPSLDLLTPPPSEVEPVDTFALEQMARLVEARLADFRIKADVVNYSPGPVITRFELNLAPGVKAARISNLSRDLARSLSTVAVRVVEVIPGKPYVGLELPNKKRQTVYLREVLDNAKFRENPSPLTVVLGKDIAGDPVVADLAKMPHLLVAGTTGSGKSVGVNAMILSMLYKAQPEDVRFIMIDPKMLELSVYEGIPHLLTEVVTDMKDAANALRWSVNEMERRYKLMSALGVRNLAGYNEKIAEAARMGRPIPDPYWKPGDSMDVQHPVLEKLPYIVVLVDEFADLMMTVGKKVEELIARLAQKARAAGIHLVLATQRPSVDVITGLIKANIPTRIAFTVSSKIDSRTILDQGGAESLLGMGDMLYSGPNSTMPVRVHGAFVRDQEVHAVVQDWKARGRPQYVDGITSDSESEGGGGGFDGGEELDALFDQAVNFVTQKRKASISGVQRQFRIGYNRAARIIEQMEAQGIVSAQGHNGNREVLAPPPFE
protein production: failed

MPGPSRKAAAWLPILVILVAMTSIQSGASLAKSLFPVVGAPGVTALRLALGTLILVVVFKPWRLRFSPAQRVPLLLYGLALGAMNYLFYLSLQRIPLGVAVALEFTGPLAVALFGSRRPLDFVWVALAILGLWYLLPLGQNVAQVDLTGALFALGAGACWAVYILTGQRAGEEHGPATVAMGSLIASLVFVPLGMAQATDTLWQWSLLPLGLGIAILSTALPYSLEMMALTRLPTRTFGTLMSLEPALAALSGMIFLGETLKLSQTLALGAIIIASMGATLTMQRQSKVEQVDIN
protein production: failed

MESTKQEEQGIYAATPPATGLLERLFKLRQHGTTVRTELAAGLTTFITMAYIIFVNPNIMADAGIDHGAAFVATCLAAALGCFLMGLYANWPVGLAPGMGLNAFFTYTVVGTMGYSWQIALGAVFISGVMFMLLTFSRVREWLLNSIPRSLRFAMGAGVGLFLGLIGLKTAGIVVASPATLIKLGHLTSPGPLLAALCFLMIAVLEYRRVFGGILISILSVTLVGWALGLVQYGGVFSAPPSLAPTFLAMDIAGAFNVTMISVILAFLFVHMFDTAGTLMGVAQRAHLVKEDGRIENLSKAMKADSASSVFGGMLGVPPVTSYVESAAGVAAGGRTGLTAVVVGVLFVAAMFFAPLAGMIPAFATAGALIYVAMLMMGGMAHIDWDEHTETIPAIVTVIMMPLTFSVADGIALGFITYVAMKVLTGKHREVSASLYALFVIFVAKFIFL
protein production: failed

MGYCIIIPAYNAARTLPAVVREVLGLGMPCLVVDDGSTDGTSATVEGLGVHLLRHDGNRGKGAALRTGFEWALAHGYSGVVTLDADGQHDPTAIPLLAATARERNVDILIASRDTQFREMAGLRSVWNRFGVWCMRKRTGFTITDSQSGFRWYSARLLKGVSLEASGYHLEMEILMKAWRGGFAIDSLPVAARVADGRATSHFRPVRDTWNICMTFLRHMLEHHHHHH
protein production: not failed

MADVEIMQTVQTEVKKTTKKVKKSSKRRESEVQISEVEVDATIEERGGEYTKAMDKDWHSGHFCCWQCDESLTGQRYVIRDDHPYCIKCYENVFANTCEECNKIIGIDSKDLSYKDKHWHEACFLCFKCHLSLVDKQFGAKADKIYCGNCYDAQFASRCDGCGEVFRAGTKKMEYKTRQWHENCFCCCVCKTAIGTKSFIPREQEIYCAGCYEEKFATRCIKCNKVITSGGVTYKNEPWHRECFTCTHCNITLAGQRFTSRDEKPYCAECFGELFAKRCTACVKPITGIGGTRFISFEDRHWHHDCFVCASCKASLVGRGFITDGPDILCPDCAKQKLM
protein production: failed

MLSHHPSLHFLSKLSTLSLQRNQEKQALVEELEERIELLNRLETTLSKTLNCFPEELVTFLKNNDSVTSLAEFAAECNVDPLRDTQTELLIAASQKLERWWQVEKLVEEEKKRNYEAEKLLKDFEAFKKDLETVITGFKAEQSSATQASVDQEKKALEKLKKAFESYEANSSCQPVDVTHEEVVELGKKVTLLEAQVIEEQLQLDTYQMLPQDPVLARIVLDEAKEKLKEFSAERDSILRNMKFV
protein production: failed

MEKISDLIECIAYEKNLPKEMISKVIQGCLLKMAQNELDPLARYLVVEENKQLQLIQLVEVLEDGDERLVNDPSKYISLSKAKEMDPSVKIKDELSYSLSLESMKQGAINRLFKDLQYQLEKALEDSHFEAFQKRLNSVLMGQVILVDHNQNTFIEIEQQFQGVLSMRHRIKGESFKVGDSIKAVLTQVKRTKKGLLLELSRTTPKMLEALLELEVPEIKDKEIEIIHCARIPGNRAKVSFFSHNARIDPIGAAVGVKGVRINAISNELNKENIDCIEYSNVPEIYITLALAPAKILSVEIKKIPIEELNAEEKESIQERFIVNNHLQKAKVRLLDIEKSKAIGKGGVNVCLASMLTGYHIEFETIPSVKENAENESEKETPKVGVEALESLFKNLEHHHHHH
protein production: not failed

MESADSGRSDPVKGDDPGPSFVSSPPATPSRYESQKRRDWNTFLQYLKNHKPPLALSRCSGAHVIEFLKYLDQFGKTKVHVAACPYFGHQQPPSPCSCPLKQAWGSLDALIGRLRAAYEENGGRPDSNPFAARAVRIYLREVRESQAKARGIPYEKKKRKRPPTVTTVRVDVASSRQSDGDPCNVGAPSVAEAVPP
protein production: failed

MTLLFRYLFRNNLQVILPTLAVGTGLYLLSDLFDRLDDILEAGVPGNVAIWYFVAKTPLIISQILPAVFLLAALIQLCLMSRDRELMALQAGGVSFGAIARFFVVYGLLWAVLQLGFSQVLGVAGERESARIWQEQVRGRTPGTRDLTNVWFTDDNHVIHLEVVTPALRKGQGFAAYGLAADGIHIDTVIRAKAFTGTAGTWKLQDVEVFSTRDFGHAKLPEMSIAIGQDPQDFAVIDPGADPQRLPLWQLGDAVEKLRTAGSNVEGLRTAWHMKLAYAASLVVMGLLAVAMVTWRDNIYLATGLALVFTFLFYTMFTIGSTLGQKGIVSPPIAAWGADILVGVVASARLLLVLRPRSLR
protein production: failed

MVRISNMQFEVIENVKDGWNEEAFVERYSDVLNKYDYIVGDWGYNQLRLRGFFDDQNKKSTYDKKISTLQDYLYEYCNFGCAYFVVKRVKTESLEHHHHHH
protein production: failed

MAEITENTKKILEVILNLKEGQVMSYRDVGALAGLPNGARQVSRILHSMSKKYELPWWRVVRSDRTIGLPEPAKSEQMELLKKEGISFTAQGKIIIEDELLLEHHHHHH
protein production: not failed

NTRLRRTKEVNEILGIDPVDKNLLVNQFVKWDPKEDKHIEVSMPKKLEKMADFLGVSVQEVYDEMLSRKRYLELMLKRGIRNYKEVTRYIHAYYRNPELAMTKME
protein production: failed

MTFHKIFFVISLMLVVSLVNAVDYSVVDNSGDSTGGRRFRGEIGGISYGTQTLRSATDFVWRLFQQTNPSDRKSVTKITLFMENGDGVAYNSGNEIHFNVGYLAGVYRS
protein production: not failed

MNPAITPILLGLVAGITVTFGALTYIVVGRRLGRRGQGVLNALAGGVLAYLALETGHESAAYVEQFATRETLDSFLAGLMVTSIALLGTWLLLSYVERGYSTLVRAPPGLMVSLTVASALGLHNLGEGLAIAASLIEGKVSLAILFAVGFAIHNYTEGFPIAAPLAGEKKRTGLRTIIGLSLLAGLPVVPGAMVYYLGSNLPGLAIATLYTVAAASIVYAMLHINLSALSRLGGLSSPSFWSSLFLGIALAYVTESIILIAGLH
protein production: failed

MNIQDYPDRDMLAIDLANHLAGELEATLFTHDSATLAVAGGTTPGPVFDVLCAADLDWHRVMVLPTDERCVPQDHSRANARLIAERLLVNRAASARYLPLYLPGAEPEDCLAEVEALLTPALPLSVLVLGMGEDMHTASLFAGMPGLAAALDADAPALAVARPETQPENRITLTAPVLNGALSKHLIIYGAAKRKALERAMSMHPEEAPIAAVLDGITVHW
protein production: failed
